Data from patent US20230250154A1 (CYTONICS, published 2023).

T1: Cathepsin G (UniProt P08311 21-244)
T1 sequence (looked up): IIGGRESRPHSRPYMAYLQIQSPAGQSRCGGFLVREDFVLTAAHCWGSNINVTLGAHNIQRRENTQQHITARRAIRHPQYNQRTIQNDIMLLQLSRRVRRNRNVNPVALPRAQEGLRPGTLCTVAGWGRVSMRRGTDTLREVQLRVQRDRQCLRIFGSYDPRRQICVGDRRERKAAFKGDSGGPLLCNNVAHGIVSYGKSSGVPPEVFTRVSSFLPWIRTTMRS

T2: MMP1 (human, UniProt P03956 100-469, limits assumed)
T2 sequence (looked up): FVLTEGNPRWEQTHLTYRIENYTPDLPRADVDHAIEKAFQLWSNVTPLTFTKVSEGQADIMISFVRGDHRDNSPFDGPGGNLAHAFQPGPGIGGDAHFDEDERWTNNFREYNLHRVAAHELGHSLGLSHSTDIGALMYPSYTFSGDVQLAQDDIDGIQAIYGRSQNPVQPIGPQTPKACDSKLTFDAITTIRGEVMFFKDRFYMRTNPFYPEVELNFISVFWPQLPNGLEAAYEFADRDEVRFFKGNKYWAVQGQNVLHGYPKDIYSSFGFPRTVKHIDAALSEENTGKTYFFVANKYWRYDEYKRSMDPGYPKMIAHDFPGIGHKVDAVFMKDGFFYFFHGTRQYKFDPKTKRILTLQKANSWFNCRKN


Key:
Test in all cases: cell-based or functional assay
Elastase = target: Elastase
Cathepsin G = target: T1, Cathepsin G
MMP1 = target: T2, MMP1

| Protease Inhibition (% of WT) (Elastase) | Protease Inhibition (% of WT) (Cathepsin G) | Protease Inhibition (% of WT) (MMP1) | Binder |
| --- | --- | --- | --- |
| 200 % of WT | 300 % of WT | 350 % of WT | Variant A2M, bait region SEQ ID NO 142 (other) SVSGKPQYMVLVPSLLHTETTEKGCVLLSYLNETVTVSASLESVRGNRSLFTDLEAENDVLHCVAFAVPKSSSNEEVMFLTVQVKGPTQEFKKRTTVMVKNEDSLVFVQTDKSIYKPGQTVKFRVVSMDENFHPLNELIPLVYIQDPKGNRIAQWQSFQLEGGLKQFSFPLSSEPFQGSYKVVVQKKSGGRTEHPFTVEEFVLPKFEVQVTVPKIITILEEEMNVSVCGLYTYGKPVPGHVTVSICRKYSDASDCHGEDSQAFCEKFSGQLNSHGCFYQQVKTKVFQLKRKEYEMKLHTEAQIQEEGTVVELTGRQSSEITRTITKLSFVKVDSHFRQGIPFFGQVRLVDGKGVPIPNKVIFIRGNEANYYSNATTDEHGLVQFSINTTNVMGTSLTVRVNYKDRSPCYGYQWVSEEHEEAHHTAYLVFSPSKSFVHLEPMSHELPCGHTQTVQAHYILNGGTLLGLKKLSFYYLIMAKGGIVRTGTHGLLVKQEDMKGHFSISIPVKSDIAPVARLLIYAVLPTGDVIGDSAKYDVENCLANKVDLSFSPSQSLPASHAHLRVTAAPQSVCALRAVDQSVLLMKPDAELSASSVYNLLPEKDLTGFPGPLNDQDDEDCINRHNVYINGITYTPVSSTNEKDMYSFLEDMGLKAFTNSKIRKPKMCPQLEQYEMHGPSELEGRGSIPENFFGVEGEGEGEGKEEEGLGSVEEPHTKLRKYFPETWIWDLVVVNSAGVAEVGVTVPDTITEWKAGAFCLSEDAGLGISSTASLRAFQPFFVELTMPYSVIRGEAFTLKATVLNYLPKCIRVSVQLEASPAFLAVPVEKEQAPHCICANGRQTVSWAVTPKSLGNVNFTVSAEALESQELCGTEVPSVPEHGRKDTVIKPLLVEPEGLEKETTFNSLLCPSGGEVSEELSLKLPPNVVEESARASVSVLGDILGSAMQNTQNLLQMPYGCGEQNMVLFAPNIYVLDYLNETQQLTPEIKSKAIGYLNTGYQRQLNYKHYDGSYSTFGERYGRNQGNTWLTAFVLKTFAQARAYIFIDEAHITQALIWLSQRQKDNGCFRSSGSLLNNAIKGGVEDEVTLSAYITIALLEIPLTVTHPVVRNALFCLESAWKTAQEGDHGSHVYTKALLAYAFALAGNQDKRKEVLKSLNEEAVKKDNSVHWERPQKPKAPVGHFYEPQAPSAEVEMTSYVLLAYLTAQPAPTSEDLTSATNIVKWITKQQNAQGGFSSTQDTVVALHALSKYGAATFTRTGKAAQVTIQSSGTFSSKFQVDNNNRLLLQQVSLPELPGEYSMKVTGEGCVYLQTSLKYNILPEKEEFPFALGVQTLPQTCDEPKAHTSFQISLSVSYTGSRSASNMAIVDVKMVSGFIPLKPTVKMLERSNHVSRTEVSSNHVLIYLDKVSNQTLSLFFTVLQDVPVRDLKPAIVKVYDYYETDEFAIAEYNAPCSKDLGNADYKDDDDKGASHHHHHH |
| 250 % of WT | 100 % of WT | 200 % of WT | Variant A2M, bait region SEQ ID NO 138 (other) SVSGKPQYMVLVPSLLHTETTEKGCVLLSYLNETVTVSASLESVRGNRSLFTDLEAENDVLHCVAFAVPKSSSNEEVMFLTVQVKGPTQEFKKRTTVMVKNEDSLVFVQTDKSIYKPGQTVKFRVVSMDENFHPLNELIPLVYIQDPKGNRIAQWQSFQLEGGLKQFSFPLSSEPFQGSYKVVVQKKSGGRTEHPFTVEEFVLPKFEVQVTVPKIITILEEEMNVSVCGLYTYGKPVPGHVTVSICRKYSDASDCHGEDSQAFCEKFSGQLNSHGCFYQQVKTKVFQLKRKEYEMKLHTEAQIQEEGTVVELTGRQSSEITRTITKLSFVKVDSHFRQGIPFFGQVRLVDGKGVPIPNKVIFIRGNEANYYSNATTDEHGLVQFSINTTNVMGTSLTVRVNYKDRSPCYGYQWVSEEHEEAHHTAYLVFSPSKSFVHLEPMSHELPCGHTQTVQAHYILNGGTLLGLKKLSFYYLIMAKGGIVRTGTHGLLVKQEDMKGHFSISIPVKSDIAPVARLLIYAVLPTGDVIGDSAKYDVENCLANKVDLSFSPSQSLPASHAHLRVTAAPQSVCALRAVDQSVLLMKPDAELSASSVYNLLPEKDLTGFPGPLNDQDDEDCINRHNVYINGITYTPVSSTNEKDMYSFLEDMGLKAFTNSKIRKPKMCPQLEQYEMHGPSEDLVVQIEGEGEGEGIPENFFGVKEEEGLGSVEEPHTKLRKYFPETWIWDLVVVNSAGVAEVGVTVPDTITEWKAGAFCLSEDAGLGISSTASLRAFQPFFVELTMPYSVIRGEAFTLKATVLNYLPKCIRVSVQLEASPAFLAVPVEKEQAPHCICANGRQTVSWAVTPKSLGNVNFTVSAEALESQELCGTEVPSVPEHGRKDTVIKPLLVEPEGLEKETTFNSLLCPSGGEVSEELSLKLPPNVVEESARASVSVLGDILGSAMQNTQNLLQMPYGCGEQNMVLFAPNIYVLDYLNETQQLTPEIKSKAIGYLNTGYQRQLNYKHYDGSYSTFGERYGRNQGNTWLTAFVLKTFAQARAYIFIDEAHITQALIWLSQRQKDNGCFRSSGSLLNNAIKGGVEDEVTLSAYITIALLEIPLTVTHPVVRNALFCLESAWKTAQEGDHGSHVYTKALLAYAFALAGNQDKRKEVLKSLNEEAVKKDNSVHWERPQKPKAPVGHFYEPQAPSAEVEMTSYVLLAYLTAQPAPTSEDLTSATNIVKWITKQQNAQGGFSSTQDTVVALHALSKYGAATFTRTGKAAQVTIQSSGTFSSKFQVDNNNRLLLQQVSLPELPGEYSMKVTGEGCVYLQTSLKYNILPEKEEFPFALGVQTLPQTCDEPKAHTSFQISLSVSYTGSRSASNMAIVDVKMVSGFIPLKPTVKMLERSNHVSRTEVSSNHVLIYLDKVSNQTLSLFFTVLQDVPVRDLKPAIVKVYDYYETDEFAIAEYNAPCSKDLGNADYKDDDDKGASHHHHHH |
| 200 % of WT | 200 % of WT | 400 % of WT | Variant A2M, bait region SEQ ID NO 139 (other) SVSGKPQYMVLVPSLLHTETTEKGCVLLSYLNETVTVSASLESVRGNRSLFTDLEAENDVLHCVAFAVPKSSSNEEVMFLTVQVKGPTQEFKKRTTVMVKNEDSLVFVQTDKSIYKPGQTVKFRVVSMDENFHPLNELIPLVYIQDPKGNRIAQWQSFQLEGGLKQFSFPLSSEPFQGSYKVVVQKKSGGRTEHPFTVEEFVLPKFEVQVTVPKIITILEEEMNVSVCGLYTYGKPVPGHVTVSICRKYSDASDCHGEDSQAFCEKFSGQLNSHGCFYQQVKTKVFQLKRKEYEMKLHTEAQIQEEGTVVELTGRQSSEITRTITKLSFVKVDSHFRQGIPFFGQVRLVDGKGVPIPNKVIFIRGNEANYYSNATTDEHGLVQFSINTTNVMGTSLTVRVNYKDRSPCYGYQWVSEEHEEAHHTAYLVFSPSKSFVHLEPMSHELPCGHTQTVQAHYILNGGTLLGLKKLSFYYLIMAKGGIVRTGTHGLLVKQEDMKGHFSISIPVKSDIAPVARLLIYAVLPTGDVIGDSAKYDVENCLANKVDLSFSPSQSLPASHAHLRVTAAPQSVCALRAVDQSVLLMKPDAELSASSVYNLLPEKDLTGFPGPLNDQDDEDCINRHNVYINGITYTPVSSTNEKDMYSFLEDMGLKAFTNSKIRKPKMCPQLEQYEMHGPSEDLVVQIEGEGEGEGIPENFFGVEAIPMSIPTEPHTKLRKYFPETWIWDLVVVNSAGVAEVGVTVPDTITEWKAGAFCLSEDAGLGISSTASLRAFQPFFVELTMPYSVIRGEAFTLKATVLNYLPKCIRVSVQLEASPAFLAVPVEKEQAPHCICANGRQTVSWAVTPKSLGNVNFTVSAEALESQELCGTEVPSVPEHGRKDTVIKPLLVEPEGLEKETTFNSLLCPSGGEVSEELSLKLPPNVVEESARASVSVLGDILGSAMQNTQNLLQMPYGCGEQNMVLFAPNIYVLDYLNETQQLTPEIKSKAIGYLNTGYQRQLNYKHYDGSYSTFGERYGRNQGNTWLTAFVLKTFAQARAYIFIDEAHITQALIWLSQRQKDNGCFRSSGSLLNNAIKGGVEDEVTLSAYITIALLEIPLTVTHPVVRNALFCLESAWKTAQEGDHGSHVYTKALLAYAFALAGNQDKRKEVLKSLNEEAVKKDNSVHWERPQKPKAPVGHFYEPQAPSAEVEMTSYVLLAYLTAQPAPTSEDLTSATNIVKWITKQQNAQGGFSSTQDTVVALHALSKYGAATFTRTGKAAQVTIQSSGTFSSKFQVDNNNRLLLQQVSLPELPGEYSMKVTGEGCVYLQTSLKYNILPEKEEFPFALGVQTLPQTCDEPKAHTSFQISLSVSYTGSRSASNMAIVDVKMVSGFIPLKPTVKMLERSNHVSRTEVSSNHVLIYLDKVSNQTLSLFFTVLQDVPVRDLKPAIVKVYDYYETDEFAIAEYNAPCSKDLGNADYKDDDDKGASHHHHHH |
